Here are results for 3 substances from PMC2679190.

This assay deals with MyBPC1 (Myosin Binding Protein C1) (UniProt Q00872).
UniProt Q00872, sequence (Q00872 whole entry, the tested form may be a part): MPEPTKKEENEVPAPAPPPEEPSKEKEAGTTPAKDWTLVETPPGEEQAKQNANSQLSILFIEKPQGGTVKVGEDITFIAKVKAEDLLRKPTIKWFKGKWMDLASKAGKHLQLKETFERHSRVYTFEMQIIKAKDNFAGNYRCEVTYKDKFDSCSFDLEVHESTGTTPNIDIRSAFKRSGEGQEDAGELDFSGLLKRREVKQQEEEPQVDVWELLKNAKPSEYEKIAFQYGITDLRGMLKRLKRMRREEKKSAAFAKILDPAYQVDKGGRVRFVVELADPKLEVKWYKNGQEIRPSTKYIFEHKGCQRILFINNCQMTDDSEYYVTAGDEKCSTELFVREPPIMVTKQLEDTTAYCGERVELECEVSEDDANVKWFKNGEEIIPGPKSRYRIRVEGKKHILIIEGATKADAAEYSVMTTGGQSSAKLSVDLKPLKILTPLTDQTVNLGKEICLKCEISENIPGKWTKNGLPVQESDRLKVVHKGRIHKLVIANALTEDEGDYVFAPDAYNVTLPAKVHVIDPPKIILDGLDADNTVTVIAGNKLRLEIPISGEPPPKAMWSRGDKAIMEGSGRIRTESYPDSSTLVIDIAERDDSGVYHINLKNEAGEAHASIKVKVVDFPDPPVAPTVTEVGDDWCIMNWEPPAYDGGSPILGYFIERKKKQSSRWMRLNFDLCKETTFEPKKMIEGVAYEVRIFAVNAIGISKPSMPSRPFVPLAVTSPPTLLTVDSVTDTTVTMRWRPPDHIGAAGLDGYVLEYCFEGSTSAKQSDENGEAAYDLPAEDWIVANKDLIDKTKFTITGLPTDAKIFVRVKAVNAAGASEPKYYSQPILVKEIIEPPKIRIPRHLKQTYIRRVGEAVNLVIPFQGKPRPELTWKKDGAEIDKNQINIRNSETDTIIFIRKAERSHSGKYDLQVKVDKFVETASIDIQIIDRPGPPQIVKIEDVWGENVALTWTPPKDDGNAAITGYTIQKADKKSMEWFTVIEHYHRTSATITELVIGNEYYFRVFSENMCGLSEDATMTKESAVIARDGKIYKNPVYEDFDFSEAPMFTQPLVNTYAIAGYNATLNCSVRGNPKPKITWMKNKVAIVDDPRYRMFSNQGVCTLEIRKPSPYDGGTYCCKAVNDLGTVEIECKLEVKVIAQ
On to “USP25m ΔUBA (Δ19-58 aa, inclusive) (enzyme)”, for which the rescue of HA-MyBPC1 from proteasome degradation in co-transfected HEK293T cells (MyBPC1 level by western blot, rescue by wild-type USP25m = 1) worked out at 3 fold.
As for “USP25m ΔUBA-UIM1-UIM2 (Δ19-141 aa, inclusive) (enzyme)”, the rescue of HA-MyBPC1 from proteasome degradation in co-transfected HEK293T cells (MyBPC1 level by western blot, rescue by wild-type USP25m = 1) was less than 8 fold.
Substance “USP25m ΔUIM1 (Δ96-115 aa, inclusive) (enzyme)” registered a rescue of HA-MyBPC1 from proteasome degradation in co-transfected HEK293T cells (MyBPC1 level by western blot, rescue by wild-type USP25m = 1) of 2 fold.
